The test concerns the target T1, intact EGFR expressed on human mammary epithelial cells (HMECs) (human, UniProt P00533 25-1210).
T1 construct: whole, on cells; also called wild-type EGFR
In words: radiolabeled antibody on parental HMECs.

Procedure: To measure the effect on EGFR and EGFRvIII signaling of a given antibody binding to EGFR or EGFRvIII, radiolabeled antibodies were added to cultures of the HMECs described in the table above. […] When a non-neutralizing radiolabeled antibody binds to EGFR on a mammalian cell, the antibody will be internalized at a high rate if a ligand is present or if the EGFR is constitutively signaling for some other reason. When a neutralizing radiolabeled antibody binds to EGFR, signaling will stop and signaling-stimulated endocytosis will also stop.
In brief, radiolabelled antibodies were added to culture parental HMECs and to HMECs expressing EGFRvIII. At times of 0, 1, 2, 3, 5 and 10 minutes, cell samples were withdrawn, washed, and then acid-stripped to remove and measure surface-bound radiolabeled antibody. The cells were then lysed and the remaining radiolabel was measured to determine levels of internalized antibody.

B1: EMD72000 (antibody, V domains shown)
VH: QVQLVQSGAEVKKPGASVKVSCKASGYTFTSHWMHWVRQAPGQGLEWIGEFNPSNGRTNYNEKFKSKATMTVDTSTNTAYMELSSLRSEDTAVYYCASRDYDYDGRYFDYWGQGTLVTVS
VL: DIQMTQSPSSLSASVGDRVTITCSASSSVTYMYWYQQKPGKAPKLLIYDTSNLASGVPSRFSGSGSGTDYTFTISSLQPEDIATYYCQQWSSHIFTFGQGTKVEIK
notes: Used fluorescently labeled in yeast display and radiolabeled in the internalization assay; also called anti-EGFR antibody EMD72000; humanized version of the murine antibody 425
On to B1, for which the binding result is recorded as “binds”.

These data come from patent publication US20070274991A1 (published 2007).
